From IntAct's records for PubMed 19559761

Biological target: ef1a2_human EEF1A2 (UniProt Q05639)
Chain of UniProt Q05639 (Q05639 whole entry): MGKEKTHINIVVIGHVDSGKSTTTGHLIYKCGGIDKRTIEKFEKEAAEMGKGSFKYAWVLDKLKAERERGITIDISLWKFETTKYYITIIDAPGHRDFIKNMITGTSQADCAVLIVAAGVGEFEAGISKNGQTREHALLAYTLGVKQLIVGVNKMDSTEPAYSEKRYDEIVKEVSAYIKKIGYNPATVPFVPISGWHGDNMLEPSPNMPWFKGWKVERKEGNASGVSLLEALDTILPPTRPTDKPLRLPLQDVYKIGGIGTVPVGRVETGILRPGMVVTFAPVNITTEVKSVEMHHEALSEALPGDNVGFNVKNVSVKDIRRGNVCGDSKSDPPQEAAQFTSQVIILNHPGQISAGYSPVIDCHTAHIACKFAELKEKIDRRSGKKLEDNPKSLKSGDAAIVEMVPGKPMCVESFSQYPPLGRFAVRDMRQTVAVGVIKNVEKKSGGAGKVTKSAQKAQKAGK

effect of a mutation on the interaction: increasing interaction
Substance: Leucine-rich repeat serine/threonine-protein kinase 2 (Homo sapiens), Q5S007 G2019S
